The target of one assay is T1, mouse PD-1 (mouse, UniProt Q02242 25-167, limits assumed).
T1 sequence (looked up): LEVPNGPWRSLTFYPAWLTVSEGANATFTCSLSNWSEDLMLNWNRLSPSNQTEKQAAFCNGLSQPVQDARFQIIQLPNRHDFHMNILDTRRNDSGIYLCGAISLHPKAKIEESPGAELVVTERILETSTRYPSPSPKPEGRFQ
The assay is described as follows: BLI (biosensor): test article on anti-human IgG Fc tips, PD-1 in solution. The method, then:
(§1) Anti-human IgG Fc (AHC) biosensors were equilibrated in assay buffer for 20 minutes. Test articles were diluted to 10 μg/mL in assay buffer (lx PBS, 1% BSA, 0.05% Tween20). A seven-point serial dilution of human PD-1 was prepared in assay buffer, starting at 1000 nM down to 15.625 nM (human PD-1) or 2000 nM down to 31.25 nM (mouse PD-1). Test articles were loaded on tips for 180 s followed by a 180 s association phase with PD-1 and 180 s dissociation phase in assay buffer.
(§2) Anti-human IgG Fc (AHC) biosensors were equilibrated in assay buffer for 20 minutes. Test article was diluted to 10 μg/mL in assay buffer (lx PBS, 1% BSA, 0.05% Tween20). A seven-point serial dilution of human PD-1 was prepared in assay buffer, starting at 1000 nM down to 15.625 nM (human and cyno PD-1) or 2000 nM down to 31.25 nM (mouse PD-1). Test article was loaded on tips for 180 s followed by a 180 s association phase with PD-1 and 180 s dissociation phase in assay buffer.

Assay [1] deals with PD-1 on PD-1 reporter Jurkat cells (UniProt Q15116 25-288, limits assumed). The assay is described as follows: cell-based or functional assay.
The target of a further assay is T2, human PD-1 (human, UniProt Q15116 25-167, limits assumed).
T2 construct: also called huPD-1
As to the kind of experiment: BLI (biosensor): test article on anti-human IgG Fc tips, PD-1 in solution. The method, then:
as §1, §2

The target in a further assay is T3, cynomolgus PD-1 (cynomolgus, UniProt B0LAJ3 25-170).
T3 construct: also called cyno PD-1
The assay is described as above. The method, then:
as §1, §2

The next assay addresses T4, biotinylated huPD-1 (human, UniProt Q15116 25-167, limits assumed, biotinylated (site not stated)).
T4 construct: also called human PD-1
As to the kind of experiment: BLI (biosensor): biotinylated huPD-1 on streptavidin tips, fragment in solution. The method, then: (§3) Anti-human IgG Fc (AHC) or Streptavidin (SA) biosensor were equilibrated in assay buffer for 20 minutes. Fe-tagged mouse and cynomolgus PD-1 was diluted to 5 μg/mL and biotinylated huPD-1 article was diluted to 0.5 μg/mL in assay buffer (1×PBS, 1% BSA, 0.05% Tween20). […] PD-1 was loaded on tips for 180 s followed by a 180 s association phase with PD-1 and 180 s dissociation phase in assay buffer.

Assay [2] has as its target T5, Fc-tagged cynomolgus PD-1 (cynomolgus, UniProt B0LAJ3 25-170).
T5 construct: Printed 'Fe-tagged', read as Fc-tagged; also called cyno PD-1; Fe-tagged cynomolgus PD-1 (so in the source)
The assay is described as follows: BLI (biosensor): Fc-tagged PD-1 on anti-human IgG Fc tips, fragment in solution. The method, then:
as §3

A further assay addresses T6, Fc-tagged mouse PD-1 (mouse, UniProt Q02242 25-167, limits assumed).
T6 construct: Printed 'Fe-tagged', read as Fc-tagged; also called Fe-tagged mouse PD-1 (so in the source); not shown: Fc tag
T6 sequence (looked up): T1 sequence (looked up)
The description is as above. The method, then: as §3

Numbering of substitutions follows the chain as printed. Where “and” joins values, the source holds several entries; their conditions need not be identical. Identical values can stand only once.

T3 sequence (B0LAJ3 entry or part of it limits assumed): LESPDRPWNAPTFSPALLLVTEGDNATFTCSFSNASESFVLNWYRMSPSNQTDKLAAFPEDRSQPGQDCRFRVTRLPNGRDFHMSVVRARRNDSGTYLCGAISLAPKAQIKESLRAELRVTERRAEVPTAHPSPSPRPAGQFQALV
T5 sequence (B0LAJ3 entry or part of it limits assumed): as above
Sequence of PD-1 on PD-1 reporter Jurkat cells (Q15116 25-288 limits assumed): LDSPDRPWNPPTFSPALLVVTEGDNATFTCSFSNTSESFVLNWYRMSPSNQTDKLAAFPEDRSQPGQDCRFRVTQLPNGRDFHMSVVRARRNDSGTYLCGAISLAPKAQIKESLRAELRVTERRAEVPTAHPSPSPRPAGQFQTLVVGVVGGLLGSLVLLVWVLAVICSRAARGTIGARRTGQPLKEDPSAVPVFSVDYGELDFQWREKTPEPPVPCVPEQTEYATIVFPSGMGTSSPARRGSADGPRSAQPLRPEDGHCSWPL
T4 sequence (Q15116 25-167 limits assumed): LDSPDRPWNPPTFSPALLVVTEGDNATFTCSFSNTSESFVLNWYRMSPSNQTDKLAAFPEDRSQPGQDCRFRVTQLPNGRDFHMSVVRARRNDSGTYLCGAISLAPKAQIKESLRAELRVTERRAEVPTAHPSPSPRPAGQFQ
T2 sequence (Q15116 25-167 limits assumed): as above

B1: PD1AB38 (bispecific antibody, human IgG1, kappa)
heavy: EVQLVQSGAEVKKPGASVKVSCKASGYSFTTYYMHWVRQAPGQGLEWMGIINPSGGSTSYAQKFQGRVTMTRDTSTSTVYMELSSLRSEDTAVYYCASGWVYWGQGTLVTVSSASTKGPSVFPLAPSSKSTSGGTAALGCLVKDYFPEPVTVSWNSGALTSGVHTFPAVLQSSGLYSLSSVVTVPSSSLGTQTYICNVNHKPSNTKVDKKVEPKSCDKTHTCPPCPAPEAAGAPSVFLFPPKPKDTLMISRTPEVTCVVVDVSHEDPEVKFNWYVDGVEVHNAKTKPREEQYNSTYRVVSVLTVLHQDWLNGKEYKCKVSNKALPAPIEKTISKAKGQPREPQVYTLPPSREEMTKNQVSLTCLVKGFYPSDIAVEWESNGQPENNYKTTPPVLDSDGSFFLYSKLTVDKSRWQQGNVFSCSVMHEALHNHYTQKSLSLSPGGGGGSGGGGSGGGGSEVQLLESGGGLVQPGGSLRLSCAASGFTFSSYDMSWVRQAPGKGLEWVSGITISGGSTYYADSVKGRFTISRDNSKNTLYLQMNSLRAEDTAVYYCARGRGGSGWLDYWGQGTTVTVSSGGGGSGGGGSGGGGSGGGGSDIVMTQSPDSLAVSLGERATINCKSSQSVLYSPNNKNYLAWYQQKPGQPPKLLIYWASTRESGVPDRFSGSGSGTDFTLTISSLQAEDVAVYYCQQYYTTPPTFGQGTRLEIK
light: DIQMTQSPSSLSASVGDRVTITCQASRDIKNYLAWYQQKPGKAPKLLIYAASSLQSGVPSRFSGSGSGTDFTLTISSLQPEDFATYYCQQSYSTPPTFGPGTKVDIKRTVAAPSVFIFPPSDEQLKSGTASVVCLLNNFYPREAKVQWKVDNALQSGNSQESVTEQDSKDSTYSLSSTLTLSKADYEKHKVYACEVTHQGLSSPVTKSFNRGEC
One may read the Kd as the free concentration of one partner at which half of the binding sites on the other are occupied at equilibrium, for simple one-to-one binding. A low value points to tighter binding. One may read the koff as a measure of how fast the partners let go of each other. As usually defined, the kon is a measure of how fast the partners come together. High values mean fast association, low ones slow association. In the assay with mouse PD-1, B1 yielded a Kd of 979 nM, a koff of 0.0229 s⁻¹ and a kon of 23400 M⁻¹ s⁻¹. In assay [1], the “EC50 of SHP-2 recruitment, PD-1 reporter Jurkat cells, Ig-tethered test article on anti-human IgG coated plates” value (from here on “EC50 … on anti-human IgG coated plates”) turned out to be 20.9 nM and the “EC50 of SHP-2 recruitment, PD-1 reporter Jurkat cells, soluble test article” value (shortened to “EC50 of SHP-2 recruitment … soluble test article”) stood at 0.302 nM.

B2: PD1AB43 (bispecific antibody, human IgG1, kappa)
heavy: B1 heavy with E1Q, N52A
light: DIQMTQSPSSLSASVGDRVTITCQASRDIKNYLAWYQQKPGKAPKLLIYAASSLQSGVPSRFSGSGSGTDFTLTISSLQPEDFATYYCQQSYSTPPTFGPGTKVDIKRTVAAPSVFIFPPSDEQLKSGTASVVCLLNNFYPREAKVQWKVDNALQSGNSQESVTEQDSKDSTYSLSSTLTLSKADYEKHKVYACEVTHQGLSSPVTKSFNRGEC
Regarding B2, in the assay with mouse PD-1, binding was characterised by a dissociation constant (Kd) of 1430 nM, the koff was 0.0404 s⁻¹, the kon came to 28200 M⁻¹ s⁻¹ and the response was 0.0546. Further, in assay [1], the “EC50 … on anti-human IgG coated plates” value amounted to 8.51 nM and the “EC50 of SHP-2 recruitment … soluble test article” value is 0.574 nM.

B3: PD1AB37 (bispecific antibody, human IgG1, kappa)
heavy: B1 heavy with T31S
light: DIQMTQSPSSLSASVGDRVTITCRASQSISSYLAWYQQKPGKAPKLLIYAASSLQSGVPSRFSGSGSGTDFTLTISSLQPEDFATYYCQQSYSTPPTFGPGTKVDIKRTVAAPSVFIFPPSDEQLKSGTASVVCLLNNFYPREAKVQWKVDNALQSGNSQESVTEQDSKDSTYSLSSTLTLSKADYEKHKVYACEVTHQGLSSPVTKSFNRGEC
Consider B3, for which, in the assay with mouse PD-1, the Kd came out at 4860 nM, the koff is 0.0245 s⁻¹ and the kon stood at 5050 M⁻¹ s⁻¹. For the same molecule, in the assay with human PD-1, binding was put at a Kd of 18.3 nM, the koff was found to be 0.000824 s⁻¹ and the kon came to 45000 M⁻¹ s⁻¹. In the assay with cynomolgus PD-1, this molecule showed a Kd of 15.4 nM, a koff of 0.000566 s⁻¹ and a kon of 36800 M⁻¹ s⁻¹. For the same molecule, in assay [1], the “EC50 … on anti-human IgG coated plates” value stood at 24.5 nM and the “EC50 of SHP-2 recruitment … soluble test article” value came to 0.37 nM.

B4: scFv moiety of the PD1AB37 (scFv)
scFv: EVQLLESGGGLVQPGGSLRLSCAASGFTFSSYDMSWVRQAPGKGLEWVSGITISGGSTYYADSVKGRFTISRDNSKNTLYLQMNSLRAEDTAVYYCARGRGGSGWLDYWGQGTTVTVSSGGGGSGGGGSGGGGSGGGGSDIVMTQSPDSLAVSLGERATINCKSSQSVLYSPNNKNYLAWYQQKPGQPPKLLIYWASTRESGVPDRFSGSGSGTDFTLTISSLQAEDVAVYYCQQYYTTPPTFGQGTRLEIK
notes: also called PD1AB37 scFv
B4: the Kd was found to be 89.9 nM with biotinylated huPD-1 and 58.6 nM in assay [2]. Besides, the binding result with Fc-tagged mouse PD-1 is recorded as “no binding”.

B5: scFv moiety of the PD1AB38 (scFv)
scFv: B4 scFv
notes: also called PD1AB38 scFv
In assay [2], B5 had a Kd of 58.6 nM. Moreover, the binding result in the assay with Fc-tagged mouse PD-1 is given as “no binding”.

B6: scFv moiety of the PD1AB53 (scFv)
scFv: DIQMTQSPSSLSASVGDRVTITCQASRDIKNYLAWYQQKPGKAPKLLIYAASSLQSGVPSRFSGSGSGTDFTLTISSLQPEDFATYYCQQSYSTPPTFGCGTKVDIKGGGGSGGGGSGGGGSGGGGSEVQLVQSGAEVKKPGASVKVSCKASGYSFTTYYMHWVRQAPGQCLEWMGIINPSGGSTSYAQKFQGRVTMTRDTSTSTVYMELSSLRSEDTAVYYCASGWVYWGQGTLVTVSS
notes: also called PD1AB53 scFv
B6: the Kd with biotinylated huPD-1 came out at 1350 nM; in assay [2], 1170 nM; in the assay with Fc-tagged mouse PD-1, 1060 nM.

B7: PD1AB53 (bispecific antibody, human IgG1, kappa)
heavy: EVQLLESGGGLVQPGGSLRLSCAASGFTFSSYDMSWVRQAPGKGLEWVSGITISGGSTYYADSVKGRFTISRDNSKNTLYLQMNSLRAEDTAVYYCARGRGGSGWLDYWGQGTTVTVSSASTKGPSVFPLAPSSKSTSGGTAALGCLVKDYFPEPVTVSWNSGALTSGVHTFPAVLQSSGLYSLSSVVTVPSSSLGTQTYICNVNHKPSNTKVDKKVEPKSCDKTHTCPPCPAPEAAGAPSVFLFPPKPKDTLMISRTPEVTCVVVDVSHEDPEVKFNWYVDGVEVHNAKTKPREEQYNSTYRVVSVLTVLHQDWLNGKEYKCKVSNKALPAPIEKTISKAKGQPREPQVYTLPPSREEMTKNQVSLTCLVKGFYPSDIAVEWESNGQPENNYKTTPPVLDSDGSFFLYSKLTVDKSRWQQGNVFSCSVMHEALHNHYTQKSLSLSPGGGGSEGGGSEGGGSEDIQMTQSPSSLSASVGDRVTITCQASRDIKNYLAWYQQKPGKAPKLLIYAASSLQSGVPSRFSGSGSGTDFTLTISSLQPEDFATYYCQQSYSTPPTFGCGTKVDIKGGGGSGGGGSGGGGSGGGGSEVQLVQSGAEVKKPGASVKVSCKASGYSFTTYYMHWVRQAPGQCLEWMGIINPSGGSTSYAQKFQGRVTMTRDTSTSTVYMELSSLRSEDTAVYYCASGWVYWGQGTLVTVSS
light: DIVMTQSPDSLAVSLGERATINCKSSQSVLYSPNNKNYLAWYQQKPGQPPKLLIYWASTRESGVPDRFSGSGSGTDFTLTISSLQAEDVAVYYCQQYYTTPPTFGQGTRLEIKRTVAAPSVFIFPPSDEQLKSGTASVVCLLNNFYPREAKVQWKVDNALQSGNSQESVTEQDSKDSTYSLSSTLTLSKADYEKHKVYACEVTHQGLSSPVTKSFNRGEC
B7: in the assay with mouse PD-1, the koff was 0.0228 s⁻¹ and 0.0657 s⁻¹; the kon was 5940 M⁻¹ s⁻¹ and 2670 M⁻¹ s⁻¹; the response turned out to be 0.0367. Further, in the assay with human PD-1, the kon is 67600 M⁻¹ s⁻¹ and 41300 M⁻¹ s⁻¹; the response stood at 0.227. In the assay with cynomolgus PD-1, this molecule displayed a Kd of 13.5 nM, a koff of 0.000531 s⁻¹ and a kon of 39400 M⁻¹ s⁻¹. Further, in assay [1], the “EC50 … on anti-human IgG coated plates” value was 4.83 nM and the “EC50 of SHP-2 recruitment … soluble test article” value amounted to 1.21 nM.

B8: Fab moiety of the PD1AB37 (Fab, V domains shown)
VH: EVQLVQSGAEVKKPGASVKVSCKASGYSFTSYYMHWVRQAPGQGLEWMGIINPSGGSTSYAQKFQGRVTMTRDTSTSTVYMELSSLRSEDTAVYYCASGWVYWGQGTLVTVSS
VL: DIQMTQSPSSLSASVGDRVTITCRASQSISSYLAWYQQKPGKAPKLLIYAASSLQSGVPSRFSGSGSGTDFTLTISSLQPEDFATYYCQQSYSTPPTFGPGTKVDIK
notes: also called PD1AB37 Fab
As to B8, the figures for the Kd (with biotinylated huPD-1; in assay [2]; with Fc-tagged mouse PD-1) were 330 nM, 497 nM and 1350 nM, respectively.

B9: Fab moiety of the PD1AB38 (Fab, V domains shown)
VH: B8 VH with S31T
VL: DIQMTQSPSSLSASVGDRVTITCQASRDIKNYLAWYQQKPGKAPKLLIYAASSLQSGVPSRFSGSGSGTDFTLTISSLQPEDFATYYCQQSYSTPPTFGPGTKVDIK
notes: also called PD1AB38 Fab
In the case of B9, the values for the Kd (with biotinylated huPD-1; in assay [2]; with Fc-tagged mouse PD-1) were 140 nM, 172 nM and 176 nM, respectively.

The values above are taken from US20240052034A1 (PANDION OPERATIONS, published 2024).
